Assay results taken from patent US20240350596.

Test system: ghrelin (acylated; [3H]-ghrelin labeled on the octanoic acid moiety of the acylated Ser3)

Row | Substance | Relative catalytic efficiency for ghrelin (Relative to CocH3) (fold relative to CocH3)
1 | BChE mutant A199S/F227A/P285S/S287G/A328W/Y332G | 2
2 | Wild-type human BChE | 1.5
3 | BChE mutant A199S/S287G/A328W/Y332G | 2
4 | BChE mutant A199S/F227A/P285Q/S287G/A328W/Y332G | 3
5 | BChE mutant T284S/P285I/V288I/F398I | 3
6 | BChE-M02 (A199S/F227A/P285A/S287G/A328W/Y332G mutant of human BChE) | 3
7 | BChE mutant T284S/P285I/V288I | 3
8 | BChE mutant F398I | 2
9 | CocH3 (A199S/F227A/S287G/A328W/Y332G mutant of human BChE) | 1
10 | BChE mutant T284S/P285I/F398I | 3
